Data taken from patent publication EP3470428A1 (Numab Innovation AG, dated 2019).

Key:
[1] = molecular target: T1, human CD137 expressed on cells (human, UniProt Q07011 24-255); assay: cell-based or functional assay
[2] = molecular target: T1, human CD137 expressed on cells; assay: cell-based or functional assay; remark: listed apart in the source
[3] = molecular target: T2, biotinylated human PD-L1 (human, UniProt Q9NZQ7 19-238, limits assumed, biotinylated); assay: competition ELISA; coated human B7.1 as competitor; biotinylated PD-L1 pre-incubated with inhibitor
T2 construct: also called biotinylated PD-L1

[4] = molecular target: T2, biotinylated human PD-L1; assay: competition ELISA; coated human PD-1 as competitor; biotinylated human PD-L1 pre-incubated with inhibitor
[5] = molecular target: T2, biotinylated human PD-L1; assay: PD-L1/PD-1 competition ELISA with human serum albumin
[6] = molecular target: T1, human CD137 expressed on cells; assay: cell-based or functional assay; remark: listed apart in the source
[7] = molecular target: T3, human serum albumin (human, UniProt P02768 25-609); assay: SPR (Biacore T200); SA amine-coupled; pH 5.5
T3 construct: Amine-coupled to a CM5 chip; assay at pH 5.5; also called HSA; human SA

[8] = molecular target: T1, human CD137 expressed on cells; assay: cell-based or functional assay; remark: listed apart in the source
[9] = molecular target: T4, human PD-L1 expressed on cells (human, UniProt Q9NZQ7 19-290); assay: cell-based or functional assay
[10] = molecular target: T4, human PD-L1 expressed on cells; assay: cell-based or functional assay; remark: listed apart in the source
[11] = molecular target: human PD-L1-Fc chimeric protein (human, UniProt Q9NZQ7 19-239); assay: SPR (Biacore T200); PD-L1-Fc captured by anti-human Fc
[12] = molecular target: T1, human CD137 expressed on cells; assay: cell-based or functional assay; remark: listed apart in the source
[13] = molecular target: T4, human PD-L1 expressed on cells; assay: cell-based or functional assay; remark: listed apart in the source
[14] = molecular target: T1, human CD137 expressed on cells; assay: cell-based or functional assay; remark: listed apart in the source
[15] = molecular target: T1, human CD137 expressed on cells; assay: cell-based or functional assay; remark: listed apart in the source

| max. activation (%), NF-kB reporter gene, CHO-PD-L1; HSA: yes, 24h [1] [%] | EC50 in ng/ml, CD137 activation, NFkB-luciferase Jurkat reporter assay, HCC827 with IFNy stimulation, 24h, +HSA [2] [ng/mL] | EC50 in ng/ml, CD137 activation, NFkB-luciferase Jurkat reporter assay, HCC827 without IFNy stimulation, 24h, +HSA [2] [ng/mL] | IC50 [3] [µg/mL] | IC50 [4] [µg/mL] | fold change of IC50 in presence of human serum albumin [5] [fold] | EC50 in ng/ml, CD137 activation, NFkB-luciferase Jurkat reporter assay, PD-L1 expressing CHO cells, 6h, + HSA [6] [ng/mL] | binding result [7] | EC50 in ng/ml, CD137 activation, NFkB-luciferase Jurkat reporter assay, PD-L1 expressing CHO cells, 24h, + HSA [8] [ng/mL] | IC50 (ng/ml), neutralization of PD-L1/PD-1 interaction, NFAT-luciferase reporter gene assay, with HSA [9] [ng/mL] | EC50 in ng/ml, IL-2 secretion, PBMC stimulated with SEA [10] [ng/mL] | IC50 (ng/ml), neutralization of PD-L1/PD-1 interaction, NFAT-luciferase reporter gene assay [9] [ng/mL] | fold higher affinity against the STR graft of clone 33-03-G02 [11] [fold] | max. activation (%), NF-kB reporter gene, CHO-PD-L1; HSA: no [1] [%] | max. activation (%), NF-kB reporter gene, HCC827 +IFNg; HSA: no [1] [%] | max. activation (%), NF-kB reporter gene, HCC827 -IFNg; HSA: no [1] [%] | EC50 in ng/ml, CD137 activation, NFkB-luciferase Jurkat reporter assay, HCC827 cells stimulated with IFNg [12] [ng/mL] | IC50, neutralization of PD-L1/PD-1 interaction, NFAT-luciferase reporter gene assay [13] [µg/mL] | EC50 in ng/ml, CD137 activation, NFkB-luciferase Jurkat reporter assay, HCC827 cells without IFNg [14] [ng/mL] | EC50 in ng/ml, CD137 activation, NFkB-luciferase Jurkat reporter assay, CHO-PD-L1 cells [15] [ng/mL] | Binder |
| --- | --- | --- | --- | --- | --- | --- | --- | --- | --- | --- | --- | --- | --- | --- | --- | --- | --- | --- | --- | --- |
| 663 | 115 | 76.6 | 0.0163 | 0.00861 | ~2 | 112 | binds | 792 | 665 | – | – | – | – | – | – | – | – | – | – | PRO1057: 38_02_A04 sc01 scDb-i/33-03-G02 sc01 scDb-o/mxr HSA (23-13-A01-sc03, sk17sh4) (other, Trispecific scTriabody (scDb-scFv)) DIQMTQSPSSLSASVGDRVTITCQASQSINDYLAWYQQKPGKAPKLLIYKASTLASGVPSRFSGSGSGTDFTLTISSLQPEDFATYYCQQGYIITDIDNVFGTGTKVTVLGGGGGSQVQLQESGPGLVKPSETLSLTCKVSGFSFSNSYWICWIRQPPGKGLEWIGCTFVGSSDSTYYANWAKGRVTISVDSSKNQFSLKLSSVTAADTAVYYCARHPSDAVYGYANNLWGQGTLVTVSSGGGGSGGGGSGGGGSGGGGSIQMTQSPSSLSASVGDRVTITCQASQSINNVLAWYQQKPGKAPKLLIYRASTLASGVPSRFSGSGSGTDFTLTISSLQPEDFATYYCQSSYGNYGDFGTGTKVTVLGGGGGSQVQLQESGPGLVKPSETLSLTCKVSGFSFSSGYDMCWIRQPPGKGLEWIGCVVAGSVDITYYASWAKGRVTISVDSSKNQFSLKLSSVTAADTAVYYCARKDAYSDAFNLWGQGTLVTVSSGGGGSGGGGSVVMTQSPSSLSASVGDRVTITCQASQIISSRSAWYQQKPGQPPKLLIYQASKLASGVPSRFSGSGSGTDFTLTISSLQPEDFATYYCQCTYIDSNFGAFGGGTKLTVLGGGGGSGGGGSGGGGSGGGGSEVQLVESGGGLVQPGGSLRLSCAASGFSFSSSYWICWVRQAPGKGLEWVGCVFTGDGTTYYASWAKGRFTISRDNSKNTVYLQMNSLRAEDTATYFCARPVSVYYYGMDLWGQGTLVTVSS |
| – | – | – | 0.00636 | 0.0005 | – | – | – | – | – | 40.9 | 11.1 | ~2 | – | – | – | – | – | – | – | PRO997 (anti-PD-L1 scFv, CDR set of clone 37-20-B03 grafted on a VH4 framework) (scFv) DIQMTQSPSSLSASVGDRVTITCQASQSIGTYLAWYQQKPGKAPKLLIYRAFILASGVPSRFSGSGSGTDFTLTISSLQPEDFATYYCQSNFYSDSTTIGPNAFGTGTKVTVLGGGGGSGGGGSGGGGSGGGGSQVQLQESGPGLVKPSETLSLTCKVSGFSFNSDYWIYWIRQPPGKGLEWIGSIYGGSSGNTQYASWAQGRVTISVDSSKNQFSLKLSSVTAADTAVYYCARGYVDYGGATDLWGQGTLVTVSS |
| – | – | – | – | 0.00128 | – | – | – | – | – | – | – | – | 242 | 208 | 135 | 5.48 | 0.0481 | 6.97 | 6 | PRO1126: 38-02-A04 sc01 scDb-i/33_03_G02 sc03 Full scDb-o (bispecific antibody, scDb, STR graft of the PD-L1 domain) DFQLTQSPSSLSASVGDRVTITCQASQSINDYLAWYQQKPGKSPKLLIYKASTLASGVPSRFSGSGSGTDFTLTISSLQPEDFATYYCQQGYIITDIDNVFGTGTKVTVLGGGGGSQVQLQESGPGLVKPSETLSLTCKVSGFSFSNSYWICWIRQPPGKGLEWIGCTFVGSSDSTYYANWAKGRVTISVDSSKNQFSLKLSSVTAADTAVYYCARHPSDAVYGYANNLWGQGTLVTVSSGGGGSGGGGSGGGGSGGGGSIQMTQSPSSLSASVGDRVTITCQASQSINNVLAWYQQKPGKAPKLLIYRASTLASGVPSRFSGSGSGTDFTLTISSLQPEDFATYYCQSSYGNYGDFGTGTKVTVLGGGGGSQSQLQESGPGLVKPSETLSLTCKASGFSFSSGYDMCWVRQPPGKGLEWIACVVAGSVDITYYASWAKGRVTISKDSSKNQVSLKLSSVTAADTAVYFCARKDAYSDAFNLWGQGTLVTVSS |
